Measurements as given in EP1740204B1.
Values joined by “and” are separate entries in the source; they are usually repeats but may differ in a detail not shown here. Equal values may be shown once. Values belong to the substance of their own block, whether it stands above or below them.

Assays:
[1] = molecular target: MPR 300 affinity matrix (Man6P-receptor affinity matrix); test: overnight incubation with MPR 300 affinity matrix; activity in unbound, glucose 6-phosphate and mannose 6-phosphate eluted fractions
[2] = molecular target: MPR 300 affinity matrix (Man6P-receptor affinity matrix); test: MPR 300 affinity column
[3] = molecular target: MPR 300 affinity matrix (Man6P-receptor affinity matrix); test: MPR 300 affinity matrix binding of enzyme batches

- percent of LAMAN activity bound to the Man6P-receptor affinity matrix in a Man6P-dependent manner [1]: 6.4%
Substance: bovine LAMAN purified from kidney (from UniProt Q29451 51-999) (enzyme)

- percent bound to the MRP 300 column [2]: < 40%
- % phosphorylation (fraction of enzyme binding the Man6P-receptor affinity matrix) [3]: 40% and 30% and 42%
- percent of the amount of enzyme binding to the affinity matrix [3]: 40%
- percent of LAMAN bound to the Man6P-receptor affinity matrix in a Man6P-dependent manner [1]: 4.2%
Substance: recombinant human lysosomal alpha-mannosidase (LAMAN) expressed in CHO cells (enzyme)

- percent of LAMAN activity bound to the Man6P-receptor affinity matrix [1]: 73.6%
Substance: recombinant mouse LAMAN with C-terminal polyhistidine tail, secreted from mannose 6-phosphate receptor deficient mouse embryonic fibroblasts (from UniProt O09159 50-1013) (enzyme)
